Assay results reported in a protein production outcome set (Wang et al. 2014).

Test: label from the status in PepcDB records

Row | Sequence | protein production
1 | MSLVKKSSNVIAAVVSSVRTNFAQQILDGIQEEAHKNGYNLIIVYSGSADPEEQKHALLTAIERPVMGILLLSIALTDDNLQLLQSSDVPYCFLSMGFDDDRPFISSDDEDIGYQATNLLINEGHRQIGIAGIDQYPYTGRKRLAGYKKALKEANIAINQEWIKPGDYSYTSGEQAMKAFGKNTDLTGIIAASDMTAIGILNQASSFGIEVPKDLSIVSIDGTEMCKITRPQLTSISQDFFQMGVTGVQQIHQSVKNGSNRIVSQQFIPVNPVIRKSTARLGEGHHHHHH | not failed
2 | MAIPSGATGKEPFLPRTLTVLREGYDGGTFFKDLAAGLTVGIVALPLAMAFAIASGTTPERGLFTAIVAGFLISLLGGSRYQIGGPTGAFVIIIFNVIMKHGYDGLVVTTLLAGAMLLVFGLCRFGALIKYIPYPVTTGFTAGIAVLIFSQQVKDFLGLSMQSVPPDFFEKWQAYIHNAATFDPATCGIAFLALGAIILTRKTIPRIPGPVVGVVLASLTVWALGLDVETIGSRFGGIPTELPTFTLPTVTLERVRQLLPDAMTIALLAGIESLLSCVVADGMTGDKHNSNVELAAQGAANIASVMFGGIPATGAIARTVTNIRSGGRTPVAGMIHAAVLVGFILYLAPLASFIPLASLAAVLMVVAWDMSEMHKFLRLLHAPKSDVLVMCLTFALTVVIDLTVAVYVGVMLASLLFMRRMSEVTQICTCLDGEATKVQGRETAELDVPEGVKVYEIDGPFFFGVADRFQNVLAALDRQPEVFILRMRKVSTLDSTAVNALEVFWRKCRSDGTQLLLSGVRETMRTTLRRMGTLSLIGEGNICENIDAALARAGQVLAERREAEDRPQ | failed
3 | MTETKTIRFLSIIGCLLAGMAASCSSRQVAPNEEGISVQKMTGFPEGEPGFSLGVSACYAGIYQGELLIAGGCNFPETPAAEGGKKKFYQGIYAADASADSVFVWRKVGQLPVAAAYGVSVSTPRGIVCVGGSNENGSLSTVYRLSLSDDKQAVIVDTLPSLPCTMDNMSGSVVDYTLFVAGGNVNGKPSNGLYCLNLGNPETGWQQLPDFPGAPRVQPVCVGQRKENETLLYLWGGFSGAFDGRSATLSTDGYCYSPSLQQWQPVSTPIGSDSVPVALGGGAGIALTDSLILCTGGVNKDIFLSALQREEMMKAAVTGGNQAAVDSLKSEAKTYMLHPAEWYRFNDRILIYNTRRDKWEEAVRSQDVARAGAALTTGQGQTFFNINGELKPGIRTPEIAKIMID | failed
4 | MTGALVSSEMMARAAAAAGLSDEADRPGPAPLASPSYLALESASILTDGGVFLKVMHPEMRQDFDLGAAMALARQAGEAGIGPRVLWADPAQGAIAMEALTEAGGWRRAMQVDLQEAPVLGAAMSALKALHATPALSSRFDPFAQIDGLIADYSRLGAPLPEDTGWLRRLIGAAEPVLRTGADLAPCRNDGAASNLMLGPGGAVRLVDYDRAGMNDPLYDVGALLAETTDFEREMQAGFAAYAGAFDEVAFARARLWSFVDDMLHALWSRLKARTSARGGVEWLKYGEWRLMRLRMALNHPQYEQKIRLAGGAA | failed
5 | MSPPPAVVTESADGQPEQPPVTAIAEELEKKLQTDEPIVEDVKDDEDDDDDDEEEEDDDAQGVSGSSKQSRSEKKSRKAMLKLGMKPVTGVSRVTIKRTKNVLFFISKPDVFKSPHSETYVIFGEAKIEDLSSQLQTQAAQQFRMPEIGATSQRAEASTATVEAQVEEDEEEIDETGVEARDIDLVMTQAGVSRSKAVKALKSHDGDIVSAIMELTT | failed
6 | MAKNYDQLAKTIIKDVGGKDNVNSVVHCATRLRFKLKDEKKADDDALKNTDGVVTVVKAGGQYQVVIGNEVADVYDAVLKEGGFSGGGEVPDDYSEDDNSSFVDKAVALISGIFTDILAPLSAGGIIKGLVVLAAAMGWLSTSSGAYQILYAIGDSIFYFLPIFLGVTAARRFHMNQFIGLAIGATLTYPTMVQLAASKTVLGTLFAGTPFASQIHTTFFGIPVITMNYTSTVLPVLFAVWFASIIEHWSKKWIPSVVQMFLVPVVTMIITLPIAFIVIGPVMTWVGNAIGAVMSGIYHFSPIIAGLLLGGLWQVLVIFGVHWGIVAVTTADLAALGYDPILGMTCMVCYAQIGVVLAIIKQTKDKKLKENATGAFFSGLFGVTEPAIYGITLPRKRPFVLSCIAGAVSGAIIGAFHSVLYILPSMGFFAIPAYINPKGGSMTQIIGVIIAGVVAFIVGFALQMLFGKKSVDAKYDKKQTEKVEVNETLQTTPDVATATLASPENGQIMPLSEVKDDVFSSGAMGKGIAIEPSDGVLHAPADGKIIMTFKTGHAIGMKTKNGAEILMHIGMDTANLQGKGFDTLVEKDQKVKAGDPLIKFDIDLIKKAGYPVTTPMVVTNSQDFDDIKQIVKGEVKVGQAVLELEAPEAKDVTTSVNGQVQLN | failed
7 | MSLQESSLVLSNGLGFVDTPYKAGTLEVDDTEDLIINCDEVDCTTFVEYALAMALCPQQGDEMQEGDFARNLQRIRYRDGKIDGYTSRLHYISDWINNAVRQGLLEDVTAAYSPFKQKLSLSYMSTHPELYKSLKNSPENVAQMAKYEKALSGKEVHYLPKDKLEPDGLPWIKNGDIIALTTNTPGLDVSHMGIAIYIKGQLHLLHASSKEGKVVVGKTALSQMLKDRKSLTGIRVLRMKKEGHHHHHH | not failed
8 | MKHASHKATTVSRQKFSLAKALFASGKGSHSVRAVRAVQSAGSDAVVLGLDPAIAEKINEIAPQTRRSIREAARAAERRSHILASASLAALVGTAAGALAFSNNEDATNSFVADPATTTTQIKRISDVTAASRSEARTDLSSSSVTAQSTNEGGWGLSNSDSTLDAKLMNRNNANNPVVSALVDADGDAVPAGFNPNHAVGTNSNNYPWGQCTWYAYQRRAELGLPSSGNFGNGGAWAASASALGYWVDNTPRHVGDAVVFAPGQADADGAYGHVAVLEKINADGSIEISESNAKGLGVISTRTFSAAEAGKFQYVHY | failed
9 | MRAARLIKMVLLLQSRPTMTAAELARELEVSERTVTRDAQALSEAGVPVYAERGRAGGYRLVGGYRTRLTGLARGEAEALFLSGVPGALREMGLEDAASAARLKVSAALLPSLRDASRTAAQRFHLDAPNWFREPETPELLPAVADAVWDDRRVAARYRRGTDEVVRELEPYGLVLKAGVWYLCARVAGTAGDGPFRVYRIDRFTAVEAGEERFVRDDGFDLPAFWAERAEQFARSILRAEVVVRLSERGVRGLPYAVDALSAREALEAAGAPDADGWVTVALPVESEEVAHAQLRGLGPEVEVLAPAALRERFAREARRLAELYGG | failed
10 | MTAAPLVSVLLPVYNAGPYLAAALGSILRQDYGRLEVIAIDDGSSDNSLEILERYRQADSRVSIISRENRGLVATLNEGLAAAQGELVARMDADDVAYPWRLSRQVALFEQRPELGFCGAGVDMLIRGRIARGRPDPVFRFGRMPILAMFFTIFMHPTVVYNRKVIEDADLHYDPTYRHAEDFDLFGRLAARYPAAMMPENLLVYRVHQASVTSRHGKEMRRTHLRIVAENLEREGLAEATRDLRDIGEAVSFDTVTRAADFIVALEERIRSLPAETRPSFEAGALNLFYFLYQLVADERQPPLTHELLRRTAKWNAIRRREKYALRPGAWAPWLSLASLAAGKQADAVEYFFKSAPAAAVLASHQVG | failed
11 | MNIALARSVVGERLRLLAERMGLVAKRLQDMSQDDTPGRCTPEHCAIQVDSDDEIGDGARAFNQLIQALSLSIETETAVRTFTEMLVSELDVHQLTEQALALLLQHTGADGGAILIEVDGEIRVAASQGIGSAHTLANNDRVRSALRTERRHRVQLPEDLVVDGMLAQFRPKEVIIDPVRHKEVVLGAVVLASGQGFSAEDRNRLDVFERGLALALHNALLYDRLQTLAALDPLTGAYNRRFGMARLREEFRRAVRLNLPLGILMFDIDYFKRINDTYGHLAGDRVLSRVAKTARSVLREGDVLIRYGGEEFIAVLPAASLHDLEYVGERLRHQVDDLMLMDGDQSMHVTVSIGAAAYPDTDVEDETALVDRADKALYAAKSDGRNRLVIS | failed
12 | MKTTALRLYGKRDLRLETFDLPEMQEDEILATVVTDSLCLSSWKEANLGENHKKVPDDVTTNPIIIGHEFCGDILAVGKKWQHKFQPGQRYVIQANLQLPDRPDCPGYSFPWVDGEATHVVIPNEVMEQYCLLAYDGETYFEGSLVEPLSCVIGAFNANYHLQEGSYNHTMGIRPQGHTLILGGTGPMGLLAIDYALHGPVNPSLLVITDTDNDKLSYARKHYPSEPQTLIHYLNATDAAFDTLMALSGGHGFDDIFVFVPNEGLVTLASSLLATDGCLNFFAGPQDKHFSAPINFYDVHYAFTHYVGTSGGNTDDMRAAVKLIEEKKVQAAKVVTHILGLNAAGETTLELPAVGGGKKLVYTGKYLPLTSLTQIQDQALAAILARHQGIWSGEVEQYLLAHAEAISHDLEHHHHHH | failed
